From patent US20130280162A1 come the findings set out here.

This assay deals with human uPAR on 293/uPAR cells (human) (UniProt Q03405). The assay is described as follows: cell-based or functional assay.
human uPAR on 293/uPAR cells (human), sequence (Q03405 23-305): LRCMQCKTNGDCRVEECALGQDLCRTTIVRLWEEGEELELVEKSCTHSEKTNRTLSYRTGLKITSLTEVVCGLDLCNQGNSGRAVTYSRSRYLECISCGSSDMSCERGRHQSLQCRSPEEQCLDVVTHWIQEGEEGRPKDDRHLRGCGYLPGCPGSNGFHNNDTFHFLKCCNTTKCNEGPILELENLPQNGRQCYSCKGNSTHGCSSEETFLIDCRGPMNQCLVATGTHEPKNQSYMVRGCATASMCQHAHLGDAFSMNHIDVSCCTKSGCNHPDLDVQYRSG

uPAR-lockV2 (SMB-GFD/hFc, disulphide-linked homodimer) (Fc fusion), sequence (chain): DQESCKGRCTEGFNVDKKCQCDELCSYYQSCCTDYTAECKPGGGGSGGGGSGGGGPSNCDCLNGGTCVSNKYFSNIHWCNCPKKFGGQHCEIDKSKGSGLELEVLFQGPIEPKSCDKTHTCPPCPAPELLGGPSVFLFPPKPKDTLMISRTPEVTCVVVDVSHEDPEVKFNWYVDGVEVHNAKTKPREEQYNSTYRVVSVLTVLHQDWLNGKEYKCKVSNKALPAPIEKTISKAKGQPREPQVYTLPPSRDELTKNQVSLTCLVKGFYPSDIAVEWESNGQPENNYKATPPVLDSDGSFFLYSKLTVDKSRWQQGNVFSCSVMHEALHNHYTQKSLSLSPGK

“uPAR-lockV2 (SMB-GFD/hFc, disulphide-linked homodimer) (Fc fusion)” came in with an IC50, inhibition of 293/uPAR cell adhesion to VN(1-66)/Fc^RAD (RTCA impedance) of 0.59 nM.
